The supplement of paper PMC9112550, “Optimization of the antimicrobial peptide Bac7 by deep mutational scanning” (BMC Biology, 2022)

Test system: Escherichia coli TOP10
Assay: shrunken log2 fold change of peptide-encoding DNA abundance (4.5 h post-induction vs induction); higher = less antimicrobial activity (less host growth inhibition)
Details: time post-induction: 4.5 h; library: site-saturation at positions 5, 18, 19, 20
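Further: peptides expressed intracellularly from a pBAD plasmid library in pooled LB shake-flask culture, induced with 0.3% L-arabinose, DNA abundance read by NGS, three biological replicates, DESeq2 with apeglm shrinkage.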

Sequence	shrunken log2 fold change
RRIRDRPPRLPRPRPRPNFRPRP	0.267
RRIRYRPPRLPRPRPRPPFCPRP	-0.332
RRIRSRPPRLPRPRPRPKAVPRP	0.255
RRIRERPPRLPRPRPRPKESPRP	0.0252
RRIRGRPPRLPRPRPRPIRKPRP	0.124
RRIRLRPPRLPRPRPRPKRIPRP	0.109
RRIRGRPPRLPRPRPRPFMNPRP	-0.116
RRIRYRPPRLPRPRPRPLFCPRP	-0.579
RRIRWRPPRLPRPRPRPYDEPRP	-0.114
RRIRQRPPRLPRPRPRPKVVPRP	-0.0141
RRIRFRPPRLPRPRPRPSDQPRP	-0.302
RRIRYRPPRLPRPRPRPIQNPRP	-0.219
RRIRPRPPRLPRPRPRPSHSPRP	-0.368
RRIRHRPPRLPRPRPRPCQHPRP	-0.214
RRIRKRPPRLPRPRPRPSMGPRP	-0.267
RRIRARPPRLPRPRPRPNSHPRP	-0.248
RRIRLRPPRLPRPRPRPEPRPRP	0.74
RRIRHRPPRLPRPRPRPNSGPRP	-0.194
RRIRLRPPRLPRPRPRPWYGPRP	-0.53
RRIRNRPPRLPRPRPRPQVGPRP	0.00312
RRIRSRPPRLPRPRPRPCEYPRP	0.0232
RRIRERPPRLPRPRPRPNRWPRP	0.0283

Sequence	shrunken log2 fold change
RRIRDRPPRLPRPRPRPNEVPRP	0.0348
RRIRHRPPRLPRPRPRPSHWPRP	-0.288
RRIRHRPPRLPRPRPRPEALPRP	-0.0062
RRIRSRPPRLPRPRPRPDPFPRP	-0.214
RRIRIRPPRLPRPRPRPLVEPRP	-0.0936
RRIRFRPPRLPRPRPRPPDDPRP	0.371
RRIRMRPPRLPRPRPRPRRPPRP	1.16
RRIRIRPPRLPRPRPRPDCYPRP	-0.226
RRIRHRPPRLPRPRPRPWWHPRP	-0.113
RRIRKRPPRLPRPRPRPMNAPRP	0.228
RRIRCRPPRLPRPRPRPATVPRP	0.141
RRIRTRPPRLPRPRPRPSLLPRP	-0.0532
RRIRSRPPRLPRPRPRPSPEPRP	0.0709
RRIRKRPPRLPRPRPRPKIPPRP	0.174
RRIRFRPPRLPRPRPRPHWQPRP	-0.119
RRIRRRPPRLPRPRPRPRTYPRP	-0.213
RRIRLRPPRLPRPRPRPWAMPRP	-0.0431
RRIRYRPPRLPRPRPRPLQCPRP	-0.344
RRIRYRPPRLPRPRPRPAVLPRP	0.0447
RRIRIRPPRLPRPRPRPNVPPRP	0.0631
RRIRMRPPRLPRPRPRPPHKPRP	0.585
RRIRTRPPRLPRPRPRPNRNPRP	-0.544

Sequence	shrunken log2 fold change
RRIRGRPPRLPRPRPRPCMSPRP	0.151
RRIRKRPPRLPRPRPRPKQMPRP	0.471
RRIRARPPRLPRPRPRPAAEPRP	1.6
RRIRIRPPRLPRPRPRPKFDPRP	-0.18
RRIRIRPPRLPRPRPRPHQSPRP	-0.406
RRIRVRPPRLPRPRPRPELWPRP	0.459
RRIRWRPPRLPRPRPRPGFGPRP	0.651
RRIRYRPPRLPRPRPRPCHNPRP	-1.52
RRIRSRPPRLPRPRPRPPTPPRP	0.63
RRIRGRPPRLPRPRPRPAWCPRP	0.822
RRIRLRPPRLPRPRPRPMQEPRP	0.244
RRIRTRPPRLPRPRPRPNNNPRP	-0.451
RRIRTRPPRLPRPRPRPRRTPRP	0.338
RRIRVRPPRLPRPRPRPRCTPRP	0.0149
RRIRVRPPRLPRPRPRPWDDPRP	-0.27
RRIRWRPPRLPRPRPRPMEHPRP	0.107
RRIRNRPPRLPRPRPRPDERPRP	0.0408
RRIRRRPPRLPRPRPRPSHQPRP	0.0351
RRIRVRPPRLPRPRPRPYQIPRP	0.043
RRIRTRPPRLPRPRPRPMGSPRP	-0.0908
